Measurements as given in patent US20120270914A1, “SPLIT-LUCIFERASE C-MYC SENSOR AND USES THEREOF” (THE BOARD OF TRUSTEES OF THE LELAND STANFORD JUNIOR …, priority 2011, published 2012).

Molecular target: NFL-c-Myc T581 (firefly) [luciferase: P08659]
Experiment: cell-based or functional assay

Chain of NFL-c-Myc T581 (firefly) [luciferase: P08659] (P08659 other isoform, or with tags, fused parts or gaps): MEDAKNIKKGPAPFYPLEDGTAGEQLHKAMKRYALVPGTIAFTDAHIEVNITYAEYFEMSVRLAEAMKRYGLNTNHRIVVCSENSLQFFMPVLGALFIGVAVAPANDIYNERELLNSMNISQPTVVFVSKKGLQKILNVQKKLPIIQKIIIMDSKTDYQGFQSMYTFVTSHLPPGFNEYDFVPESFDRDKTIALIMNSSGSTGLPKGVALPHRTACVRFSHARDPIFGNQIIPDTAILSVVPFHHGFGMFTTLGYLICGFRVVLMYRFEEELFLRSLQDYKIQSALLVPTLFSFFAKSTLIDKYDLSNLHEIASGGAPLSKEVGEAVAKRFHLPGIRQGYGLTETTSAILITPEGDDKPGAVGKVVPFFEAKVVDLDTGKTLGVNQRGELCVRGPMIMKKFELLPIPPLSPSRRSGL

- complemented FL activity of SKBR3 xenografts in nude mice, normalized to hRL activity, compared with pcDNA3.1(+) vector: 4.7 fold
B1: GSK 35-433-CFL, P49841 35-420 (protein, not shown: large carriers)
chain: SKVTTVVATPGQGPDRPQEVSYTDTKVIGNGSFGVVYQAKLCDSGELVAIKKVLQDKRFKNRELQIMRKLDHCNIVRLRYFFYSSGEKKDEVYLNLVLDYVPETVYRVARHYSRAKQTLPVIYVKLYMYQLFRSLAYIHSFGICHRDIKPQNLLLDPDTAVLKLCDFGSAKQLVRGEPNVSYICSRYYRAPELIFGATDYTSSIDVWSAGCVLAELLLGQPIFPGDSGVDQLVEIIKVLGTPTREQIREMNPNYTEFKFPQIKAHPWTKDSSGTGHFTSGVRVFRPRTPPEAIALCSRLLEYTPTARLTPLEACAHSFFDELRDPNVKLPNGRDTPALFNFTTQELSSNPPLATILIPPHARIQAAASTPTNATAASDANTGDRGQTNNAASASASNST
modifications: here or on the partner: phosphorylation partially abolished (T58 cannot be phosphorylated)
